Experimental data from paper PMC4038756 (Theranostics, 2014).
Values joined by “and” are separate entries in the source; they are usually repeats but may differ in a detail not shown here. Equal values may be shown once.

Experiments:
H460 (αvβ6^-) xenografts = experiment: Small animal PET/CT imaging, H460 tumor bearing mice; type: in vivo, NOD/SCID mice; conditions: H460 tumor bearing mice, quantitative PET, mean ± s.d., n = 3
[1] = as above; type: in vivo, NOD/SCID mice; conditions: NOD/SCID, mouse, iv, total radioactivity
[2] = Small animal PET/CT imaging, H2009 tumor bearing mice; type: in vivo, NOD/SCID mice; conditions: NOD/SCID, mouse, iv, total radioactivity
[3] = test system: H2009 (αvβ6^+) xenografts; experiment: as above; type: in vivo, NOD/SCID mice; conditions: for Tumor uptake / Tumor/Lung: H2009 tumor bearing mice, n = 3; for Tumor uptake: quantitative PET, mean ± s.d.; for Tumor/Lung: ratio of PET uptakes
purified αvβ6 = purified αvβ6 (Homo sapiens, UniProt P06756+P18564); experiment: Binding assay on purified integrins; conditions: purified αvβ6, up to 1 µM
Sequence of purified αvβ6 (P06756 31-992 limits assumed): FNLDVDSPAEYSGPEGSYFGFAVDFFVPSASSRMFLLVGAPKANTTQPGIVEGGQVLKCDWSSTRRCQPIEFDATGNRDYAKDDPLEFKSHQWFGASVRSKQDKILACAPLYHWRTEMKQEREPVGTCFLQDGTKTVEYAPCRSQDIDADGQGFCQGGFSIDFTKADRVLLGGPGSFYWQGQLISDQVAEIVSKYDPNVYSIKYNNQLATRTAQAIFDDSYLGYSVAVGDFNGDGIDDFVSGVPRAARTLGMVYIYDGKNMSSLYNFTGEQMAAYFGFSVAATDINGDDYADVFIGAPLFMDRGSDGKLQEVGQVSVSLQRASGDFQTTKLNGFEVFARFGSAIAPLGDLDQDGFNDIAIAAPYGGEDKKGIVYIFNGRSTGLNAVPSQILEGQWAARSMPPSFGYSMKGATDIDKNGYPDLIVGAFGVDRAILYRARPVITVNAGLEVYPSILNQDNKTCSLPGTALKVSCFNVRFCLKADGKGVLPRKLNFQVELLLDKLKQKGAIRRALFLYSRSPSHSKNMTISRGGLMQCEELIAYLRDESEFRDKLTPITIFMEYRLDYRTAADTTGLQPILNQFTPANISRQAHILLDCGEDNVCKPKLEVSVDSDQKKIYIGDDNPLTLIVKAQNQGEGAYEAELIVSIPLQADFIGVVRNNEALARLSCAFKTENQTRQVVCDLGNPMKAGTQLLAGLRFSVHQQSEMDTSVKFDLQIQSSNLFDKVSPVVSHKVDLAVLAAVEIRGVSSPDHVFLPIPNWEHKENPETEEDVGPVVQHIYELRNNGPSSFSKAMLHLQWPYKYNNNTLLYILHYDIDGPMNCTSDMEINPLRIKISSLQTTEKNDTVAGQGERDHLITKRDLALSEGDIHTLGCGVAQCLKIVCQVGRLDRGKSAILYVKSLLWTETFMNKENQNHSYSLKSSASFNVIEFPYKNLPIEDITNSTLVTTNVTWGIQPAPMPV
Sequence of purified αvβ6 (P18564 22-707 limits assumed): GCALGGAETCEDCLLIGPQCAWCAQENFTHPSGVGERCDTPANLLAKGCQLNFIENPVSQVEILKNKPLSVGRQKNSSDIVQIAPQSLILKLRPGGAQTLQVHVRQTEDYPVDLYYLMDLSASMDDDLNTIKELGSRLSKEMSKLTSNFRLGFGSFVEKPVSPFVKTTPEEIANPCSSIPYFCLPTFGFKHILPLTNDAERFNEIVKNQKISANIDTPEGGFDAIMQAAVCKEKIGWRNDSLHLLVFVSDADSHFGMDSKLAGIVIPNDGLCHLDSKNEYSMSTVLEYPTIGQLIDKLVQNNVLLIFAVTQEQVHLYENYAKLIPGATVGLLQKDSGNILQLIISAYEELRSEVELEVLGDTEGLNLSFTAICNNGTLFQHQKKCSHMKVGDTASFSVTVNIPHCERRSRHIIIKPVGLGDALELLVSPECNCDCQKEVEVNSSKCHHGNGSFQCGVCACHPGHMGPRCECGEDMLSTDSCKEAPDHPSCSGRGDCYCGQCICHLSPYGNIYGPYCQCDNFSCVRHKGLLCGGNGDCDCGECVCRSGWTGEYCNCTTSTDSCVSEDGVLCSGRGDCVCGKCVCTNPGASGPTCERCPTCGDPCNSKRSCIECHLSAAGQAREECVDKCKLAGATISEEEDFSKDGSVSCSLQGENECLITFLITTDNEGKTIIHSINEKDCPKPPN

SMILES | Tumor uptake (H460 (αvβ6^-) xenografts; 1 h p.i.) | Tumor uptake (H460 (αvβ6^-) xenografts; 4 h p.i.) | Tumor uptake (H460 (αvβ6^-) xenografts; 24 h p.i.) | tissue uptake at 1 h ([1]; heart) | tissue uptake at 4 h ([1]; heart) | tissue uptake at 24 h ([1]; heart) | tissue uptake at 1 h ([1]; kidney) | tissue uptake at 4 h ([1]; kidney) | tissue uptake at 24 h ([1]; kidney) | tissue uptake at 1 h ([1]; liver) | tissue uptake at 4 h ([1]; liver) | tissue uptake at 24 h ([1]; liver) | tissue uptake at 1 h ([1]; lung) | tissue uptake at 4 h ([1]; lung) | tissue uptake at 24 h ([1]; lung) | tissue uptake at 1 h ([1]; muscle) | tissue uptake at 4 h ([1]; muscle) | tissue uptake at 24 h ([1]; muscle) | tissue uptake at 1 h ([2]; heart) | tissue uptake at 24 h ([2]; heart) | further results
N=C(N)NCCC[C@@H]1NC(=O)[C@H](CCCCNC(=O)CCC(C(=O)O)N2CCCN3CCN(CCCN(C(CCC(=O)NCCCC[C@@H]4NC(=O)[C@@H](Cc5ccc(O)cc5)NC(=O)[C@H](CC(=O)O)NC(=O)CNC(=O)[C@H](CCCNC(=N)N)NC4=O)C(=O)O)CC3)CC2)NC(=O)[C@@H](Cc2ccc(O)cc2)NC(=O)[C@H](CC(=O)O)NC(=O)CNC1=O (stereo partly shown) [^64Cu-CB-TE2A-(c(RGDyK))2, metal not drawn, reference compound] | 1.64 ± 0.20 %ID/g | 1.09 ± 0.24 %ID/g | 0.7 %ID/g and 0.72 ± 0.10 %ID/g | 1.9 ± 0.72 %ID/g | 0.54 ± 0.26 %ID/g | 0.42 ± 0.05 %ID/g | 4.33 ± 1 %ID/g | 1.8 ± 0.57 %ID/g | 1.2 ± 0.14 %ID/g | 2.13 ± 0.25 %ID/g | 1.61 ± 0.41 %ID/g | 2.05 ± 0.07 %ID/g | 0.68 ± 0.02 %ID/g | 0.48 ± 0.06 %ID/g | 0.3 ± 0.01 %ID/g | 0.39 ± 0.06 %ID/g | 0.31 ± 0.04 %ID/g | 0.27 ± 0.03 %ID/g | 1.67 ± 0.13 %ID/g | 0.4 ± 0.12 %ID/g | tissue uptake at 4 h ([2]; heart): 0.58 ± 0.13 %ID/g; tissue uptake at 1 h ([2]; kidney): 3.43 ± 0.25 %ID/g; tissue uptake at 4 h ([2]; kidney): 1.35 ± 0.54 %ID/g; tissue uptake at 24 h ([2]; kidney): 0.93 ± 0.09 %ID/g; tissue uptake at 1 h ([2]; liver): 2.56 ± 0.41 %ID/g; tissue uptake at 4 h ([2]; liver): 1.97 ± 0.19 %ID/g; tissue uptake at 24 h ([2]; liver): 1.65 ± 0.35 %ID/g; tissue uptake at 1 h ([2]; lung): 0.7 ± 0.05 %ID/g; tissue uptake at 4 h ([2]; lung): 0.61 ± 0.17 %ID/g; tissue uptake at 24 h ([2]; lung): 0.39 ± 0.18 %ID/g; tissue uptake at 1 h ([2]; muscle): 0.41 ± 0.04 %ID/g; tissue uptake at 4 h ([2]; muscle): 0.26 ± 0.12 %ID/g; tissue uptake at 24 h ([2]; muscle): 0.24 ± 0.08 %ID/g; Tumor uptake ([3]; 1 h p.i.): 1.58 ± 0.13 %ID/g; Tumor uptake ([3]; 4 h p.i.): 1.07 ± 0.21 %ID/g; Tumor uptake ([3]; 24 h p.i.): 0.7 %ID/g and 0.70 ± 0.29 %ID/g
N=C(N)NCCC[C@@H]1NC(=O)[C@H](CCCCN)NC(=O)[C@@H](Cc2ccc(O)cc2)NC(=O)[C@H](CC(=O)O)NC(=O)CNC1=O [cRGDyK] |  |  |  |  |  |  |  |  |  |  |  |  |  |  |  |  |  |  |  |  | binding to αvβ6 (purified αvβ6): no detectable binding
CC(=O)N[C@@H](CCCNC(=N)N)C(=O)NCC(=O)N[C@@H](CC(=O)O)C(=O)N[C@@H](CC(C)C)C(=O)N[C@@H](C)C(=O)N[C@H](C(=O)N[C@@H](CC(C)C)C(=O)N[C@@H](CCCNC(=N)N)C(=O)N[C@@H](CCC(N)=O)C(=O)N[C@@H](CC(C)C)C(=O)NCCOCCOCCOCCOCCOCCOCCOCCOCCOCCOCCOCCOCCC(=O)N[C@@H](CSC1CC(=O)N(CCC(=O)NCCCC[C@H](NC(=O)CCN2C(=O)CC(SC[C@H](NC(=O)CCOCCOCCOCCOCCOCCOCCOCCOCCOCCOCCOCCOCCNC(=O)[C@H](CC(C)C)NC(=O)[C@H](CCC(N)=O)NC(=O)[C@H](CCCNC(=N)N)NC(=O)[C@H](CC(C)C)NC(=O)[C@@H](NC(=O)[C@H](C)NC(=O)[C@H](CC(C)C)NC(=O)[C@H](CC(=O)O)NC(=O)CNC(=O)[C@H](CCCNC(=N)N)NC(C)=O)[C@@H](C)O)C(N)=O)C2=O)C(=O)NCCC(=O)N[C@@H](CSC2CC(=O)N(CCNC(=O)CCC(C(=O)O)N3CCCN4CCN(CCCN(CC(=O)O)CC4)CC3)C2=O)C(N)=O)C1=O)C(N)=O)[C@@H](C)O (stereo partly shown) [^64Cu-AcD10, metal not drawn] | 0.73 ± 0.13 %ID/g | 0.45 ± 0.11 %ID/g | 0.35 ± 0.05 %ID/g | 0.82 ± 0.05 %ID/g | 0.5 ± 0.04 %ID/g | 0.26 %ID/g | 19.5 ± 0.36 %ID/g | 18.4 ± 0.92 %ID/g | 3.43 ± 1.8 %ID/g | 1.13 ± 0.15 %ID/g | 0.95 ± 0.06 %ID/g | 0.71 ± 0.04 %ID/g | 1.02 ± 0.06 %ID/g | 0.65 ± 0.02 %ID/g | 0.24 ± 0.1 %ID/g | 0.61 ± 0.12 %ID/g | 0.35 ± 0.05 %ID/g | 0.19 ± 0.13 %ID/g | 0.78 ± 0.05 %ID/g | 0.21 ± 0.01 %ID/g | tissue uptake at 1 h ([2]; kidney): 18.8 ± 2.2 %ID/g; tissue uptake at 4 h ([2]; kidney): 19.1 ± 3.3 %ID/g; tissue uptake at 24 h ([2]; kidney): 5.4 ± 0.87 %ID/g; tissue uptake at 1 h ([2]; liver): 1.08 ± 0.11 %ID/g; tissue uptake at 4 h ([2]; liver): 0.72 ± 0.09 %ID/g; tissue uptake at 24 h ([2]; liver): 0.55 ± 0.1 %ID/g; tissue uptake at 1 h ([2]; lung): 1.33 ± 0.23 %ID/g; tissue uptake at 4 h ([2]; lung): 0.65 ± 0.03 %ID/g; tissue uptake at 24 h ([2]; lung): 0.34 ± 0.08 %ID/g; tissue uptake at 1 h ([2]; muscle): 0.83 ± 0.14 %ID/g; tissue uptake at 4 h ([2]; muscle): 0.42 ± 0.05 %ID/g; tissue uptake at 24 h ([2]; muscle): 0.32 ± 0.1 %ID/g; Tumor uptake ([3]; 1 h p.i.): 1.46 ± 0.15 %ID/g; Tumor/Lung ([3]; 1 h p.i.): 1.1 ± 0.27; Tumor uptake ([3]; 4 h p.i.): 0.98 ± 0.01 %ID/g; Tumor/Lung ([3]; 4 h p.i.): 1.51 ± 0.03; Tumor uptake ([3]; 24 h p.i.): 0.68 ± 0.02 %ID/g; Tumor/Lung ([3]; 24 h p.i.): 2.0 ± 0.08; tumor uptake increase as compared to 64Cu-M10 ([3]; H2009 tumor, all three time points (1 h, 4 h, 24 h p.i.)): ~3 fold
